Source: patent publication US8008452B2, “Phosphorylated Ndr kinase” (Novartis Forschungesstiftung, Zweigniederlassung Friedrich …, priority 2002, dated 2011)

How the values were obtained:
HA-NDR1 = assay: Immunodetection of HA-NDR1 phosphorylated on Ser281 or Thr444 from COS-1 cells; assay type: cell-based, human
Procedure: (§1) Either 1 microgram GST-NDR1 or HA-NDR1 immunoprecipitated from 100 microgram COS-1 detergent extracts as described above was separated on 10% SDS-PAGE and immunoblotted 2 h at RT or overnight at 4° C. with anti-Ser281P antisera (1:1000) in the presence of 50 microg/ml competing unphosphopeptide or anti-Thr444P purified antibody (1:500). Both antibodies were detected with horseradish peroxidase-conjugated donkey anti-rabbit Ig antibody (Amersham biosciences) and developed by ECL (chemiluminescence; Amersham Pharmacia Biotech).
To examine this possibility, extracts from transfected COS-1 cells were analyzed with the anti-Ser281P and anti-Thr444P antisera. Protein extracts (10 microg) from transfected COS-1 cells were immunoblotted with 12CA5 to verify similar expression levels of each HA-NDR1 construct. For the analysis of phosphorylation status, 12CA5-immunoprecipitated HA-NDR1 variants (out of 100 microg protein extract) were analysed by immunoblotting with phosphospecific antibodies directed against P-S281 or P-T444.
Protein extracts (10 microg) from mock- and HA-NDR1-transfected COS-1 cells were also immunoblotted with 12CA5 to verify equal expression levels of HA-NDR1 construct. For the analysis of phosphorylation status, 12CA5-immunoprecipitated HA-NDR1 (out of 100 microgram protein extract) was analysed by immunoblotting with phosphospecific antibodies directed against P-S281 or P-T444.

GST-NDR1 [1] = assay: GST-NDR1 kinase assay (peptide kinase assay); assay type: biochemical, human; parameters: Specific activity of GST-NDR1 variants, CTRL / Specific activity of GST-NDR1 variants, −S100B / Specific activity of GST-NDR1 variants, +S100B: unit not given here; details: for Specific activity of GST-NDR1 variants, −S100B: autophosphorylated 2 h in the absence of CaCl2 and S100B; for Specific activity of GST-NDR1 variants, +S100B: autophosphorylated 2 h in the presence of 1 mM CaCl2 and 10 mM bovine S100B; for Specific activity of GST-NDR1 variants, CTRL: left without further treatment
Procedure: (§2) 1 microgram of purified recombinant GST-NDR1 wild type and mutants (without further treatment or autophosphorylated for 2 h in the presence or absence of 1 mM CaCl2 and […] (Sigma)) were assayed in 20 microliter of reaction mixture containing 20 mM Tris-HCl pH 7.5, 10 mM MgCl2, 1 mM DTT, 100 microM [gamma-^32P]ATP (˜0.5 microCi/microliter), and 1 mM NDR1 substrate peptide ([…]; SEQ ID NO:22). After 30 mins incubation at 30° C., reactions were stopped with 50 mM EDTA, and 10 microliters of reaction mixture were spotted onto 2 cm^2 squares of P81 phosphocellulose paper (Whatman). These were subsequently washed for 4×5 min and 3×20 min in 1% phosphoric acid and once in acetone before counting in a liquid scintillation counter. One unit of NDR1 activity was defined as the amount which catalyses the phosphorylation of 1 nmol peptide substrate in 1 min.
(§3) Specific activity of GST-NDR1 mutants was also measured by a peptide kinase assay as described above. For this purpose, 1 microgram of purified GST-NDR1 wild type and alanine mutants were left without further treatment or autophosphorylated for 2 h in the presence or absence of 1 mM CaCl2 and […].

GST-NDR1 [2] = assay: Immunodetection of GST-NDR1 phosphorylated on Ser281 or Thr444 after in vitro autophosphorylation; assay type: biochemical, human; details: in vitro autophosphorylation with or without Ca2+/S100B
Procedure: as §1
To reliably quantify the effect of S100B on NDR1 phosphorylation status, rabbit polyclonal antibodies were raised against phosphoepitopes comprising Ser281 or Thr444. GST-NDR1 mutants were treated essentially as described in Example 2 and detected either with anti-NDR1_C-term antiserum or polyclonal antibodies recognising NDR1 phosphorylated on Ser281 or Thr444.

GST-NDR1 [3] = target: T1, GST-NDR1 (Homo sapiens, UniProt Q15208, T444A); assay: GST-NDR1 kinase assay (peptide kinase assay); assay type: biochemical; parameters: Specific activity of GST-NDR1 variants, CTRL / Specific activity of GST-NDR1 variants, −S100B / Specific activity of GST-NDR1 variants, +S100B: unit not given here; details: compared with wild type
T1 construct: made in house; host or cells: E. coli BL21-DE3-pRep4
T1 sequence (Q15208 whole entry T444A): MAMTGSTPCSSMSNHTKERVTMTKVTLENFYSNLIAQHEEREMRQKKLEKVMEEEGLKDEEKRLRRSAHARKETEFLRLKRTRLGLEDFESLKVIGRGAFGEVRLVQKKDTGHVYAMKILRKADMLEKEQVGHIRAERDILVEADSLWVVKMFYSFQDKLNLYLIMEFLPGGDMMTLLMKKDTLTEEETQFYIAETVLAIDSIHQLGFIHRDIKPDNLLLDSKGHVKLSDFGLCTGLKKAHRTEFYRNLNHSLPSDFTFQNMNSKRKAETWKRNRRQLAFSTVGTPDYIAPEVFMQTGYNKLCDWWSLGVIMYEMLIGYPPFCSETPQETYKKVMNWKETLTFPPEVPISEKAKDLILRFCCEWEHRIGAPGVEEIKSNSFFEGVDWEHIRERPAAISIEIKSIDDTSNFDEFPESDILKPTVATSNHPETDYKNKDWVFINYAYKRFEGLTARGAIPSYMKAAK
Procedure: as §2, §3

Row | Substance | phosphorylation of HA-NDR1 on Ser281 (HA-NDR1; immunoblot with anti-P-S281) | phosphorylation of HA-NDR1 on Thr444 (HA-NDR1; immunoblot with anti-P-T444) | Specific activity of GST-NDR1 variants, −S100B (GST-NDR1 [1]) | Specific activity of GST-NDR1 variants, +S100B (GST-NDR1 [1]) | Specific activity of GST-NDR1 variants, CTRL (GST-NDR1 [1]) | phosphorylation of GST-NDR1 on Ser281 and Thr444 (phosphospecific antibodies) (GST-NDR1 [2]) | kinase activity of GST-NDR1 mutant (in words) (GST-NDR1 [1]; compared with wild type) | decrease of kinase activity of GST-NDR1 mutant (GST-NDR1 [3])
1 | K118A: NDR1 kinase dead mutant, Lys 118 to alanine; GST fusion or HA-tagged | did not display any phophorylation on this position | became phosphorylated even after abolishing the kinase activity | 0.272 | 0.222 | 0.158 |  |  | 
2 | T74A: NDR1 alanine mutant of phosphorylation residue Thr74; GST fusion or HA-tagged |  |  | 3.786 | 7.818 | 1.006 | abolished the S100B-mediated increase of phosphorylation for both Ser281 and Thr444 residues | negligible reduction | 
3 | T444A: NDR1 alanine mutant of phosphorylation residue Thr444; GST fusion or HA-tagged |  |  | 1.92 | 3.974 | 0.564 | almost normal autophosphorylation on Ser281 |  | about 5 fold
